Laboratory results: article PMC4808055 (Nature cell biology, 2015)

Target: T1, yeast Twinfilin (Twf1), full-length (1-332) (yeast, UniProt P53250 1-332)
T1 sequence: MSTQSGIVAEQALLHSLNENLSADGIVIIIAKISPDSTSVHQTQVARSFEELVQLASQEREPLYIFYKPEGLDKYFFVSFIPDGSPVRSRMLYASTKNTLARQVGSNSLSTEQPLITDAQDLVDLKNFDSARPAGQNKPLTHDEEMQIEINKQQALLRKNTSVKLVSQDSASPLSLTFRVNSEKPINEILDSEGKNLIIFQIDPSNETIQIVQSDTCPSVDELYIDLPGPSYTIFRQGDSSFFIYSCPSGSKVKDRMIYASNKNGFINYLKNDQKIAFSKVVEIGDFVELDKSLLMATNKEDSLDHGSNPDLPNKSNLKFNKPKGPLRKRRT
Assay: negative-stain electron microscopy

- binding result: binds
B1: N-Srv2 (1-259) (domain or fragment)
chain: MPDSKYTMQGYNLVKLLKRLEEATARLEDVTIYQEGYIQNKLEASKNNKPSDSGADANTTNEPSAENAPEVEQDPKCITAFQSYIGENIDPLVELSGKIDTVVLDALQLLKGGFQSQLTFLRAAVRSRKPDYSSQTFADSLRPINENIIKLGQLKESNRQSKYFAYLSALSEGAPLFSWVAVDTPVSMVTDFKDAAQFWTNRILKEYRESDPNAVEWVKKFLASFDNLKAYIKEYHTTGVSWKKDGMDFADAMAQSTKN
